Measured values published in publication PMC3220508.

Molecular target: HSPC038-EYFP fusion protein (human) (UniProt Q9Y5V0)
Assay: FRET or BRET

UniProt Q9Y5V0, sequence (Q9Y5V0 whole entry, the tested form may be a part): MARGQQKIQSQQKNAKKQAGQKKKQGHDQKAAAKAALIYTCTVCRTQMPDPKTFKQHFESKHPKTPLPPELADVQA

normalized netFRET, 5 min hypotonic (isotonic = 1.00): 1.31
normalized netFRET, 15 min hypotonic (isotonic = 1.00): 1.44
normalized netFRET, 30 min hypotonic (isotonic = 1.00): 1.49
Substance: ICln-ECFP fusion protein (from UniProt P54105 1-237) (natural protein)
